Source: paper PMC8959893, “T-Cell Responses to Immunodominant Listeria Epitopes Limit Vaccine-Directed Responses to the Colorectal Cancer Antigen, Guanylyl Cyclase C” (Frontiers in Immunology, 2022)

Target: T1, peptide-H-2K^d complex (Mus musculus, UniProt P01902)
T1 construct: expressed in transfected cells; host or cells: RMA-S (TAP-deficient), stably expressing H-2K^d; provided by Dr. Sean Murphy (University of Washington)
T1 sequence (P01902 22-368): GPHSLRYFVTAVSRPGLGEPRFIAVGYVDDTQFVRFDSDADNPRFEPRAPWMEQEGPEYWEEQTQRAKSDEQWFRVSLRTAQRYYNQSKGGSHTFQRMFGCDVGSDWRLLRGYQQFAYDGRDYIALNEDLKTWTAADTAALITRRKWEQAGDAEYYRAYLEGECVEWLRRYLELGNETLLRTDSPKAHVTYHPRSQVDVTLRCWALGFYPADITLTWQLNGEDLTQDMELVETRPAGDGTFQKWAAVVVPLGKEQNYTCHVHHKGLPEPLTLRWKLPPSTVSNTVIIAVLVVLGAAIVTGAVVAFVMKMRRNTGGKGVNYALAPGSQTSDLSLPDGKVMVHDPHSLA
T1 sequence (P01887 21-119 partner): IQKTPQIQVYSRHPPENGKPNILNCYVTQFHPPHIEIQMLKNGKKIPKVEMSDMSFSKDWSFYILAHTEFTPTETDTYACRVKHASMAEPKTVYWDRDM
Assay type: cell-based
Conditions: for half-life (t1/2) of peptide-H-2K^d complex: Figure 4D, flow cytometry MFI, nonlinear regression of two experiments
Experimental: As previously described ([27]), RMA-S-H-2K^d cells were incubated overnight at 26°C with 30 ug/mL of each peptide. In the morning, cells were incubated 2 h at 37°C, washed 3x with PBS to remove unbound peptide, and incubated an additional 2, 4, or 6 h at 37°C. Cells were then stained with anti-H-2K^d-PE antibody (Invitrogen, Clone SF1-1.1.1), and surface H-2K^d was quantified as mean fluorescence intensity (MFI) by flow cytometry. The percent change in surface peptide-H-2K^d complexes was calculated using the formula, MFI^peptide−MFI^no peptide/MFI^0 hrs−MFI^no peptide×100 ([28]). The t1/2 for the peptide-MHC complex was calculated by nonlinear regression.

[1] = RMA-S-H-2K^d cells, 30 ug/mL peptide overnight at 26°C, 2 h at 37°C, washed, additional 2, 4 or 6 h at 37°C

Substance	Dissociation from MHC, fold faster than Lm-derived peptide-H-2K^d complexes (Figure 3, stated in Discussion) [fold]	t1/2 of peptide-H-2K^d complex (Figure 3C, RMA-S-H-2K^d cells, 30 ug/mL peptide overnight at 26°C, 2 h at 37°C, washed, additional 2, 4 or 6 h at 37°C, anti-H-2K^d-PE MFI by flow cytometry, nonlinear regression, representative of two experiments) [h]	half-life (t1/2) of peptide-H-2K^d complex [1] [h]
GUCY2C254-262: dominant H-2K^d-restricted CD8+ T-cell epitope of mouse guanylyl cyclase C, residues 254-262 (SFYDVKGDL; UniProt Q3UWA6 254-262, looked up, fragment)	> 5	1.8	2.1
GUCY2CL262I: GUCY2C254-262 peptide variant with L262I point mutation at an H-2K^d anchoring residue (SFYDVKGDI; UniProt Q3UWA6 254-262, looked up, variant L262I)	–	–	1.0
GUCY2CF255Y: GUCY2C254-262 peptide variant with F255Y point mutation at an H-2K^d anchoring residue (SYYDVKGDL; UniProt Q3UWA6 254-262, looked up, variant F255Y)	–	–	8.3
